Test results taken from article PMC2241622, “Aminopeptidase B, a glucagon-processing enzyme: site directed mutagenesis of the Zn^2+-binding motif and molecular modelling” (BMC Biochemistry, 2007).
Read-outs that look alike come from different tables or passages of the source.

Key:
[1] = molecular target: T1, Aminopeptidase B (His-rAp-B) (Rattus norvegicus, UniProt O09175); test: L-Arg-β-NA hydrolysis assay with recombinant enzyme; Ki and percent inhibition ([…] at […]); assay type: biochemical
T1 construct: gene Rnpep; His-tagged full-length rat Ap-B (673 residues incl. His-tag/Factor Xa site; 650-residue Ap-B) from E. coli
T1 sequence (O09175 1-650): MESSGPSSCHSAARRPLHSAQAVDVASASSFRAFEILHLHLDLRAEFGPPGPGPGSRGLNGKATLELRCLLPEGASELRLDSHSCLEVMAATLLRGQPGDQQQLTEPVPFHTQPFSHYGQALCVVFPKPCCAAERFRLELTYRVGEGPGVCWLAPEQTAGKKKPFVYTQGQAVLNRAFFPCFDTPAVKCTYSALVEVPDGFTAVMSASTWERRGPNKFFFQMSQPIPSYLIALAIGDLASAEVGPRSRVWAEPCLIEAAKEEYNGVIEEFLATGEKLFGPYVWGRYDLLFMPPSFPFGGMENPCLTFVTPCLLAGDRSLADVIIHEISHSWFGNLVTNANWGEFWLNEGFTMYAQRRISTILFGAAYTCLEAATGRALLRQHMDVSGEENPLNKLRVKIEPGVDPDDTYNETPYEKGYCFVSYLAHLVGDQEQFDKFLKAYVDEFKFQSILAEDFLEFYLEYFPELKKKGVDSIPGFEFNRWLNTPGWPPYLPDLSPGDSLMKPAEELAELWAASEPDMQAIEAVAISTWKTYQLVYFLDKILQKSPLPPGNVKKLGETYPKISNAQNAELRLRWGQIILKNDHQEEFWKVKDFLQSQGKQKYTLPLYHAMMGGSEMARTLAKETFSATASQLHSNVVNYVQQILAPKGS

[2] = molecular target: T1, Aminopeptidase B (His-rAp-B); test: as above; assay type: biochemical; remark: listed apart in the source
[3] = molecular target: T1, Aminopeptidase B (His-rAp-B); test: as above; assay type: biochemical; remark: listed apart in the source
[4] = substrate: N=C(N)NCCC[C@H](N)C(=O)Nc1ccc2ccccc2c1; test: purified protein; assay type: biochemical, Rattus norvegicus; settings: Zn2+
[5] = substrate: NCCCC[C@H](N)C(=O)Nc1ccc2ccccc2c1; test: purified protein; assay type: biochemical, Rattus norvegicus; settings: Zn2+

`NC(N)=NCCC[C@H](N)C(=O)C[C@@H](Cc1ccccc1)C(=O)O` [Arphamenine A] showed a Ki [1] of 20 nM.

Work on `CC(C)C[C@H](NC(=O)[C@@H](O)[C@H](N)Cc1ccccc1)C(=O)O` [Bestatin] yielded a Ki [2] of 50 nM.

With `N=C(N)NCCC[C@H](N)C(=O)C[C@@H](Cc1ccc(O)cc1)C(=O)O` [Arphamenine B] the Ki [3] was 20 nM.

B1: Aminopeptidase B (His-rAp-B) (Rattus norvegicus) (protein)
chain: MESSGPSSCHSAARRPLHSAQAVDVASASSFRAFEILHLHLDLRAEFGPPGPGPGSRGLNGKATLELRCLLPEGASELRLDSHSCLEVMAATLLRGQPGDQQQLTEPVPFHTQPFSHYGQALCVVFPKPCCAAERFRLELTYRVGEGPGVCWLAPEQTAGKKKPFVYTQGQAVLNRAFFPCFDTPAVKCTYSALVEVPDGFTAVMSASTWERRGPNKFFFQMSQPIPSYLIALAIGDLASAEVGPRSRVWAEPCLIEAAKEEYNGVIEEFLATGEKLFGPYVWGRYDLLFMPPSFPFGGMENPCLTFVTPCLLAGDRSLADVIIHEISHSWFGNLVTNANWGEFWLNEGFTMYAQRRISTILFGAAYTCLEAATGRALLRQHMDVSGEENPLNKLRVKIEPGVDPDDTYNETPYEKGYCFVSYLAHLVGDQEQFDKFLKAYVDEFKFQSILAEDFLEFYLEYFPELKKKGVDSIPGFEFNRWLNTPGWPPYLPDLSPGDSLMKPAEELAELWAASEPDMQAIEAVAISTWKTYQLVYFLDKILQKSPLPPGNVKKLGETYPKISNAQNAELRLRWGQIILKNDHQEEFWKVKDFLQSQGKQKYTLPLYHAMMGGSEMARTLAKETFSATASQLHSNVVNYVQQILAPKGS
notes: His-tagged full-length rat Ap-B (673 residues incl. His-tag/Factor Xa site; 650-residue Ap-B) from E. coli, Ni-NTA purified
With B1 the Km [4] was 108 ± 13 µM, the Vmax [4] was 8.76 µM/min and the kcat [4] was 20 ± 3 s⁻¹. It also gave a kcat/Km [4] of 185000 M⁻¹ s⁻¹, a Km [5] of 135 ± 30 µM and a Vmax [5] of 3.9 µM/min. The kcat [5] was 3 ± 0.35 s⁻¹ and the kcat/Km [5] was 22000 ± 2000 M⁻¹ s⁻¹.
